{"source": "patent US20240240209A1", "about": "“SYNTHESIS OF ENANTIOPURE CIS-A-IRONE FROM A RENEWABLE CARBON SOURCE” (Agency for Science, Technology and Research, priority 2021, published 2024)", "molecules": {"B1": {"name": "mtaD: 5-methylthioadenosine/S-adenosylhomocysteine deaminase, auxiliary enzyme deaminating SAH (protein, UniProt Q9X034 1-406, looked up)", "5-methylthioadenosine/S-adenos …": "MIIGNCLILKDFSSEPFWGAVEIENGTIKRVLQGEVKVDLDLSGKLVMPALFNTHTHAPMTLLRGVAEDLSFEEWLFSKVLPIEDRLTEKMAYYGTILAQMEMARHGIAGFVDMYFHEEWIAKAVRDFGMRALLTRGLVDSNGDDGGRLEENLKLYNEWNGFEGRIFVGFGPHSPYLCSEEYLKRVFDTAKSLNAPVTIHLYETSKEEYDLEDILNIGLKEVKTIAAHCVHLPERYFGVLKDIPFFVSHNPASNLKLGNGIAPVQRMIEHGMKVTLGTDGAASNNSLNLFFEMRLASLLQKAQNPRNLDVNTCLKMVTYDGAQAMGFKSGKIEEGWNADLVVIDLDLPEMFPVQNIKNHLVHAFSGEVFATMVAGKWIYFDGEYPTIDSEEVKRELARIEKELYSS"}, "B2": {"name": "mtn: 5′-methylthioadenosine/S-adenosylhomocysteine nucleosidase, auxiliary enzyme hydrolysing SAH (protein, UniProt P0AF12 1-232, looked up)", "5'-methylthioadenosine/S-adeno …": "MKIGIIGAMEEEVTLLRDKIENRQTISLGGCEIYTGQLNGTEVALLKSGIGKVAAALGATLLLEHCKPDVIINTGSAGGLAPTLKVGDIVVSDEARYHDADVTAFGYEYGQLPGCPAGFKADDKLIAAAEACIAELNLNAVRGLIVSGDAFINGSVGLAKIRHNFPQAIAVEMEATAIAHVCHNFNVPFVVVRAISDVADQQSHLSFDEFLAVAAKQSSLMVESLVQKLAHG"}, "B3": {"name": "pMT12: pMT1 with Y200F S182E L273V L180A A202L Y65F C156D T91P N231D (protein)", "chain": "MPQEARTPQQQVTADEVGDWYDKFGEVYHLTLGESVHCGLWFPPDAPVPQDMELVTMSSQAQDRFTDYLIETLDPKAGQHLLDIGCGTGRPALKAARQRGIAVTGVAVSKEQIAAANRLAAGHGLTERLTFEVADAMRLPYEDESFDCAWAIESLDHMDRAKALGEAWRVLKPGGDLLVAEEVVTEELTEPETALFETLFALNVPPRLGEFFDIVSGAGFHTLSLKDLSADLAMTMNVFALGVYSRRAEFTERFGAEFVDGLLAGLGSAQETVIRKTRFFMATLRKPAV", "modifications": "Modified from pMT1", "notes": "pMT1 with Y200F S182E L273V L180A A202L Y65F C156D T91P N231D"}, "B4": {"name": "S268H: pMT12 with S268H (protein)", "chain": "B3 chain with S268H", "modifications": "Modified from pMT1"}, "B5": {"name": "E190A (protein)", "chain": "B3 chain with E190A", "modifications": "Modified from pMT1"}, "B6": {"name": "A95C: pMT12 with A95C (protein)", "chain": "B3 chain with A95C", "modifications": "Modified from pMT1"}, "B7": {"name": "F212L: pMT12 with F212L (protein)", "chain": "B3 chain with F212L", "modifications": "Modified from pMT1"}, "B8": {"name": "pMT1: wild-type bifunctional methyltransferase and cyclase TleD from Streptomyces blastmyceticus (protein, listed as Streptomyces blastmyceticus)", "chain": "B3 chain with F65Y, P91T, D156C, A180L, E182S, F200Y, L202A, D231N, V273L"}, "B9": {"name": "Q60V: pMT7 with Q60V (protein)", "chain": "B3 chain with Q60K, P91T, D156C, D231N", "modifications": "Modified from pMT1"}}, "key": {"[1]": {"experiment": "Purified pMT7/pMT10 reaction with auxiliary enzymes mtn and mtaD", "format": "biochemical", "settings": "20 μM SAH introduced in the purified enzymatic reaction", "description": "All the purified enzyme reactions were done in triplicates.\nAn alternative strategy to reduce SAH inhibition is to introduce auxiliary enzymes that degrade SAH12 (FIG. 18a). […] Noteworthy, with mtaD enzyme, cis-α-irone production by pMT10 was improved by ˜2.5 fold as compared to pMT10 reaction alone (FIG. 3c). […] This somewhat agrees with the effect of mutating D135, which abolishes the hydrogen bond interaction between pMT7 and the amine group of the adenine moiety."}, "[2]": {"experiment": "Cell lysate reaction of pMT enzymes with psi-ionone, irones quantified by HS-SPME-GCMS", "format": "biochemical", "settings": "for in-vitro production of cis-α-irone (in words): single mutations vs parent (pMT7 or pMT12); for fold change in cis-α-irone produced: AUC vs non-mutated (=1)", "method_in_brief": "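pMT1 site-saturation mutants were expressed in E. coli BL21(DE3) and lysed, and lysates were incubated 2 days at 28 °C with 0.2 mM SAM and 10 mg/L psi-ionone (plus caryophyllene) in 50 mM Tris pH 7, 10 mM MgCl2. Cis-α-irone was measured by HS-SPME-GCMS peak area and given as fold change over non-mutated enzyme.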"}, "[3]": {"experiment": "In-vivo cis-α-irone production screening of pMT7 and pMT12 mutants", "format": "cell-based, Escherichia coli", "settings": "for Fold change in in-vivo cis-α-irone production: mutations made to pMT12, normalized to pMT12 (=1)", "method_in_brief": "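E. coli BL21(DE3) ΔaroA ΔaroB ΔaroC ΔserC strains, with or without ΔmetJ, carried the plasmids and were grown in 1 ml auto-inducing defined medium (glucose/glycerol, 30 mM lactose) at 28 °C for 3 days. Products were extracted into hexane and measured by GC-MS. Production is a semi-quantitative fold change relative to pMT12.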"}, "[4]": {"experiment": "In vivo cis-α-irone production from glucose/glycerol in strain 2O31 cultures", "format": "cell-based, Escherichia coli", "settings": "pMT plasmid transformed into strain 2O31; 2 days", "description": "The advantage of in vivo biotransformation is that microbial cells can regenerate expensive co-factors rendering the scale-up bioprocess more cost-effective. […] Thus, pMT was incorporated into our psi-ionone producing microbe^7,8, to synthesize cis-α-irone from cheap renewable carbon sources (glucose/glycerol) (FIG. 4 and FIG. 19). To achieve high productivity, the psi-ionone production was first optimized by multidimensional heuristic process (MHP)^15, and strain 2O31 was identified to be the highest producer for psi-ionone (FIG. 19b). 2O31 was used as the base strain to probe cis-α-irone production in vivo (Table 5). Moreover, to improve the plasmid stability, auxotrophic strain was used with chemically defined media^1. The plasmid carrying pMT1, pMT7 or pMT10 was transformed into the strain 2O31, and produced less than 0.01, about 2 and about 3 mg/L cis-α-irone respectively in 2 days (FIG. 19d). To further optimize irone production with pMT10, three different culture conditions were tested: no methionine or dodecane added (control); 10 mM methionine added; 10 mM methionine and 20% dodecane added. In the control reaction, approximately 4.8 mg/L or 0.85 mg/L/OD cis-α-irone was produced after 3-day incubation (2O31-pMT10, FIGS. 4c and 4e). […] Lastly, when both methionine and dodecane were added, psi-ionone was accumulated in the organic layer and only ˜0.3 mg/L or ˜0.05 mg/L/OD cis-α-irone was produced (2O31-pMT10, FIGS. 4c, d and e). […] The limited methylation efficiency might be due to insufficient cofactor or SAH inhibition. […] In fact, the total amount of psi-ionone and cis-α-irone decreased (FIG. 4c, and d). As SAM biosynthesis is regulated by metJ in E. coli^16,17, the aforementioned six reactions were subsequently examined under metJ deleted genetic background (2O31, ΔmetJ). An increase in cis-α-irone titer to ˜5.7 mg/L was produced by 2O31 ΔmetJ-pMT10 strain with 10 mM methionine supplementation (FIG. 4c). An increase in specific cis-α-irone titer to ˜1.2 mg/L/OD was produced by 2O31 ΔmetJ-pMT10r strain without methionine supplementation (FIG. 4d). […]"}}, "note": "Residue numbers refer to the chain shown, from its start. Numbers in names are those of the source."}
{"molecule": "B1", "values": [{"measurement": "effect of supplementary auxiliary enzyme on pMT7 and pMT10 activity", "setting": "[1]", "value": "restored pMT7 and pMT10 activity"}]}
{"molecule": "B2", "values": [{"measurement": "effect of supplementary auxiliary enzyme on pMT7 and pMT10 activity", "setting": "[1]", "value": "restored pMT7 and pMT10 activity"}]}
{"molecule": "B3", "values": [{"measurement": "irone production / methyltransferase activity towards psi-ionone (in words)", "setting": "[2]; cell lysate reaction, vs parent or control", "value": "maintained the percentage of cis-α-irone produced while further improving the absolute amount produced"}, {"measurement": "Fold change in in-vivo cis-α-irone production", "setting": "[3]", "value": 1}]}
{"molecule": "B4", "values": [{"measurement": "in-vitro production of cis-α-irone (in words)", "setting": "[2]", "value": "moderate increase"}, {"measurement": "Fold change in in-vivo cis-α-irone production", "setting": "[3]", "value": 1.26}]}
{"molecule": "B5", "values": [{"measurement": "Fold change in in-vivo cis-α-irone production", "setting": "[3]", "value": 1.12}]}
{"molecule": "B6", "values": [{"measurement": "in-vitro production of cis-α-irone (in words)", "setting": "[2]", "value": "moderate increase"}, {"measurement": "Fold change in in-vivo cis-α-irone production", "setting": "[3]", "value": 0.95}]}
{"molecule": "B7", "values": [{"measurement": "in-vitro production of cis-α-irone (in words)", "setting": "[2]", "value": "moderate increase"}, {"measurement": "Fold change in in-vivo cis-α-irone production", "setting": "[3]", "value": 1.11}]}
{"molecule": "B8", "values": [{"measurement": "cis-α-irone content (percentage of cis-α-irone in the irone mixture)", "setting": "[2]; cell extracts with psi-ionone", "value": 21, "unit": "%"}, {"measurement": "trans-α-irones detected (share of irones)", "setting": "[2]; cell extracts with psi-ionone", "value": 79, "unit": "%"}, {"measurement": "fold change in cis-α-irone produced", "setting": "[2]; pMT1_E153 mutants", "value": 1.0}, {"measurement": "fold change in cis-α-irone produced", "setting": "[2]; pMT1_M236 mutants", "value": 1.0}, {"measurement": "fold change in cis-α-irone produced", "setting": "[2]; pMT1_R160 mutants", "value": 1.0}, {"measurement": "fold change in cis-α-irone produced", "setting": "[2]; pMT1_S182 mutants", "value": 1.0}, {"measurement": "fold change in cis-α-irone produced", "setting": "[2]; pMT1_Y200 mutants", "value": 1.0}, {"measurement": "cis-α-irone produced", "setting": "[4]", "value": "less than 0.01 mg/L"}]}
{"molecule": "B9", "values": [{"measurement": "in-vitro production of cis-α-irone (in words)", "setting": "[2]", "value": "increased the cis-α-irone production in-vitro"}, {"measurement": "in-vivo production of cis-α-irone (in words)", "setting": "[3]; single mutations vs parent (pMT7 or pMT12)", "value": "increased cis-α-irone production in-vivo"}]}
